These results are taken from IntAct's records for PubMed 25218446.

To fix the notation:
B1: Pre-mRNA-splicing factor CWC26 (Saccharomyces cerevisiae), P46947 (parent)
chain: MALHQYLSETYGPTKPKNKTKKKKKESKSDANSDKTSLIVKERLSTLQQEQEKSGVASFSKFDKQKSKNIWKNLETNELSHAITHPSASSITGNESKNDLKEIRAQEPLVTVADKSKTRKTIYRDAQGHKIQEDSKIDDSSFSRSKYEDEKAAEREQYLKNLNMGDVQKLGINVDAHDKKKNQTASSLTIEDPAITFTHDKERTVKTSLLGRKLYDKPAPENRFAIMPGSRWDGVHRSNGFEEKWFAKQNEINEKKVQSYTLQEDY
partner: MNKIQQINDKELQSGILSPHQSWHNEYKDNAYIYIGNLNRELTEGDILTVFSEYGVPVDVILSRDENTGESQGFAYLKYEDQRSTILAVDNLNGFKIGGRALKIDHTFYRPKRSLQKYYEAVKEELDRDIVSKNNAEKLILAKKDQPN
B2: Pre-mRNA leakage protein 1 (Saccharomyces cerevisiae), Q07930 (parent)
chain: MFHRRKRPYNTRNYGHDDKKFKSQYIDIMPDFSPSGLLELESNNKEGIALKHVEPQDAISPDNYMDMLGLEARDRTMYELVIYRKNDKDKGPWKRYDLNGRSCYLVGRELGHSLDTDLDDRTEIVVADIGIPEETSSKQHCVIQFRNVRGILKCYVMDLDSSNGTCLNNVVIPGARYIELRSGDVLTLSEFEEDNDYELIFMNV
partner: B1 partner

The variants in one test derive from B1. Particulars: with ist3_yeast IST3, P40565.
In the case of V235A, the “effect of a mutation on the interaction” value is “decreasing interaction strength”.
As to R237A, the “effect of a mutation on the interaction” value is given as “disrupting interaction strength”.
As to W232A, the “effect of a mutation on the interaction” value was “disrupting interaction strength”.
On the same count and under the same terms, as for F224A, the entry is “decreasing interaction strength”.

The variants in the next test derive from B2. Particulars: with ist3_yeast IST3, P40565.
Consider MFHRRKRPYNTRNYGHDDKKFKSQYIDIMPDASPSGLLELESNNKEGIALKHVEPQDAISPDNYMDMLGLEARDRTMYELVIYRKNDKDKGPWKRYDLNGRSCYLVGRELGHSLDTDLDDRTEIVVADIGIPEETSSKQHCVIQFRNVRGILKCYVMDLDSSNGTCLNNVVIPGARYIELRSGDVLTLSEFEEDNDYELIFMNV [F32A], for which the “effect of a mutation on the interaction” value was “disrupting interaction strength”.
Consider MFHRRKRPYNTRNYGHDDKKFKSQYIDIMPDFSPSGLAELESNNKEGIALKHVEPQDAISPDNYMDMLGLEARDRTMYELVIYRKNDKDKGPWKRYDLNGRSCYLVGRELGHSLDTDLDDRTEIVVADIGIPEETSSKQHCVIQFRNVRGILKCYVMDLDSSNGTCLNNVVIPGARYIELRSGDVLTLSEFEEDNDYELIFMNV [L38A], for which the “effect of a mutation on the interaction” value was “decreasing interaction strength”.
